The target in test [1] is human CD16A-Fc^48R/158F fusion protein (human) (UniProt P08637). In words: SPR, BIAcore 2000, antigen immobilized.
The target of test [2] is CD16B-Fc^NA1 (human) (UniProt O75015). The test is described as follows: SPR, BIAcore 2000, antigen immobilized. In general terms: Surface plasmon resonance follows binding to a sensor surface in real time, without labels.
Test [3] addresses CD16B-Fc^SH (human) (UniProt O75015). The test is described as follows: SPR, BIAcore 2000, antigen immobilized.
For test [4], the target named is CD16B-Fc^NA2 (human) (UniProt O75015). In words: SPR, BIAcore 2000, antigen immobilized.
Sequence of CD16B-Fc^NA2 (human) (O75015 17-200 N65S): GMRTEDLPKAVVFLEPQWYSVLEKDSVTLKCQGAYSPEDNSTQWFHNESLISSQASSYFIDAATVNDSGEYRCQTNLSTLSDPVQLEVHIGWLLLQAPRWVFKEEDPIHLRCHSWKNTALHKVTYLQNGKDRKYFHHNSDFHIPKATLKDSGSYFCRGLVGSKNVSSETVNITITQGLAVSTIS
The target of test [5] is human CD16A-Fc^48R/158V fusion protein (human) (UniProt P08637). The test is described as follows: SPR, BIAcore 2000, antigen immobilized.
Sequence of human CD16A-Fc^48R/158V fusion protein (human) (P08637 17-208 L66R/F176V limits assumed): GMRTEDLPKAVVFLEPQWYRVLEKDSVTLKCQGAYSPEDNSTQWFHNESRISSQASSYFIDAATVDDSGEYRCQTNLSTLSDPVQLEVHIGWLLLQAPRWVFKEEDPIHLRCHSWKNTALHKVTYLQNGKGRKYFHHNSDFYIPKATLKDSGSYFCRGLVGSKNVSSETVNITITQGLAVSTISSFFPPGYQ
The target of test [6] is human CD16A-Fc^48R/158F fusion protein (human) (UniProt P08637). In words: SPR, BIAcore 2000, antigen immobilized, koff/kon.
Test [7] addresses CD16B-Fc^NA1 (human) (UniProt O75015). The test is described as follows: SPR, BIAcore 2000, antigen immobilized, koff/kon.
Test [8] has as its target CD16B-Fc^SH (human) (UniProt O75015). In words: SPR, BIAcore 2000, antigen immobilized, koff/kon.
The target in test [9] is CD16B-Fc^NA2 (human) (UniProt O75015). In words: SPR, BIAcore 2000, antigen immobilized, koff/kon.
Test [10] addresses human CD16A-Fc^48R/158V fusion protein (human) (UniProt P08637). In words: SPR, BIAcore 2000, antigen immobilized, koff/kon.
The target is the same in test [11]. The test is described as follows: SPR, BIAcore 2000, CD16A-Fc immobilized on CM5, 1:1 Langmuir.
In test [12] the target is native CD16A on human peripheral blood NK cells (human) (UniProt P08637). The test is described as follows: cell-based or functional assay.
Sequence of native CD16A on human peripheral blood NK cells (human) (P08637 17-254): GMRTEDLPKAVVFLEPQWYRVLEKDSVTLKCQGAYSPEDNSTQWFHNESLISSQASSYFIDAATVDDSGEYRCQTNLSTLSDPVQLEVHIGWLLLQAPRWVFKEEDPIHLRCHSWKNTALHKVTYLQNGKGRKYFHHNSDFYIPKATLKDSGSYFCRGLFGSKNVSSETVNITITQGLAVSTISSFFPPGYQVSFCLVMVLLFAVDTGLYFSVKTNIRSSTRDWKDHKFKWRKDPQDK
The target in test [13] is human CD16A-Fc^48R/158V fusion protein (human) (UniProt P08637). The test is described as follows: SPR, BIAcore 2000, CD16A-Fc immobilized on CM5, koff/kon.

Sequence of CD16B-Fc^SH (human) (O75015 17-200 N65S/A78D): as the sequence (O75015 17-200 N65S) above, with A62D counted along it
Sequence of human CD16A-Fc^48R/158F fusion protein (human) (P08637 17-208): as the sequence (P08637 17-208 L66R/F176V limits assumed) above, with R50L, V160F counted along it
Sequence of CD16B-Fc^NA1 (human) (O75015 other isoform, or with tags, fused parts or gaps): as the sequence (O75015 17-200 N65S) above, with S20R, S49N, N66D, I90V counted along it

For the substance anti-CD16 murine monoclonal antibody A9, the koff was 0.00038 s⁻¹ in test [1]; 0.000487 s⁻¹ in test [2]; 0.000528 s⁻¹ in test [3]; 0.000478 s⁻¹ in [4]; 0.000406 s⁻¹ in test [5]; 0.000177 s⁻¹ in test [11]. Moreover, the kon in test [1] was determined as 99400 M⁻¹ s⁻¹; in [2] it was 77200 M⁻¹ s⁻¹; in test [3], 77900 M⁻¹ s⁻¹; in [4], 75700 M⁻¹ s⁻¹; in test [5] it was 78600 M⁻¹ s⁻¹; in test [11] it was 101000 M⁻¹ s⁻¹. The dissociation constant (Kd) was determined as 3.82 nM in [6]; 8.91 nM in test [7]; 11.4 nM in test [8]; 9.63 nM in test [9]; 5.17 nM in test [10]; 1.75 nM in [13]. In addition, in [12], the lysis of P815 targets by NK cells (calcein release), 1 µg/mL antibody was 65%.

What is called koff is the first-order rate constant of dissociation. Higher therefore signals fast dissociation. The kon is the rate constant with which the complex forms. By Kd is commonly meant the equilibrium constant for the complex coming apart.

Values taken from patent US20090214574A1.
